From article PMC8476643 (2021) come the findings set out here.

The Kd is a measure of binding affinity in units of concentration. A high value points to a looser complex.

The target of the assay is SARS-CoV-2 receptor-binding domain (RBD) (SARS-CoV-2, UniProt P0DTC2). Briefly: SPR.

B1: 7D6 monoclonal antibody (antibody, V domains shown)
VH: EVQLQQSGAELVRPGASVKLSCTASGFNIKDTYIHWVKQRPEQGLEWIGRIDPGDGDTEYDPSFQGKATITADTSSNTAYLELSSLTSEDTAVYYCTRFYDYVDYGMDYWGQGTSVTVSS
VL: DIQMTQSPASLSASVGETVTITCRASGNIHNYLAWYQQKQGKSPQLLVYNAKTLADGVPSRFSGSGSGTQYSLKINSLQPEDFGSYYCQHFWSTPPWTFGGGTKLEVK
B1 came in with an equilibrium dissociation constant (Kd) of 3 pM.
